# Measurements: patent publication US9453050B2, “Compositions for treating glioma” (GLIA SP Z.O.O., priority 2011, dated 2016)
# B1: shGM-CSF: shRNA to mouse GM-CSF, oligonucleotides SEQ ID NO: 23 and 24, stably expressed in EGFP-GL261 glioma cells (nucleic acid)
# chain 1: GATCCCGGAAACGGACTGTGAAACATTCAAGAGATGTTTCACAGTCCGTTTCCGGTTTTTTGGAAA
# chain 2: AGCTTTTCCAAAAAACCGGAAACGGACTGTGAAACATCTCTTGAATGTTTCACAGTCCGTTTCCGG
# B2: shSPP1: shRNA specific to rat osteopontin, oligonucleotides SEQ ID NO: 21 and 22, stably expressed in C6 glioma cells (nucleic acid)
# chain 1: GATCCAGCTAGTCCTAGACCCTAATTCAAGAGATTAGGGTCTAGGACTAGCTTGTTTTTTGGAAA
# chain 2: AGCTTTTCCAAAAAACAAGCTAGTCCTAGACCCTAATCTCTTGAATTAGGGTCTAGGACTAGCTG
# modifications: the letters are possibly those of the target site
# How the values were obtained:
# [1] = tested on: EGFP-GL261 glioma cells; experiment: BrdU incorporation of glioma cells expressing shGM-CSF; type: cell-based, mouse; conditions: FIG. 10C
# [2] = tested on: EGFP-GL261 glioma cells; experiment: MTT metabolism test of glioma cells expressing shGM-CSF; type: cell-based, mouse; conditions: FIG. 10D
# From the text: To check if glioma-derived GM-CSF is responsible for recruitment of microglia/macrophages to gliomas and for tumor growth, EGFP-GL261 glioma cells stably depleted of GM-CSF were generated by over-expressing plasmids encoding specific shRNA. Silencing of GM-CSF expression at the mRNA level (FIG. 10A) and at the protein level (FIG. 10B) in two independently derived clones was confirmed by qPCR and ELISA. Two clones derived in parallel and expressing negative shRNA served as controls.
# [3] = tested on: EGFP-GL261 glioma; experiment: Intracranial EGFP-GL261 glioma implantation in C57BL/6 mice; type: in vivo, mouse
# Method: Adult C57BL/6 mice (12-16 wk) were anesthetized with an i.p. injection of ketamine (75 mg/kg) and medetomidine (1 mg/kg). EGFP-GL261 glioma cells, shGM-CSF glioma cells or shNeg glioma cells (8×10^4 cells in 1 μl of DMEM) were inoculated in a right striatum using 1-μl syringe with a 26-gauge needle in a stereotactic apparatus according to the coordinates (+1.5 mm AP, −1.5 mL). Mice were resuscitated using i.p. administration of atipamazole and […] Tolfedine 4% (4 mg/kg s.c.). At day 15th after glioma implantation, the animals were anesthetized, sacrificed and perfused with PBS or PBS and 4% paraformaldehyde in PBS. The brains were removed and minced or post-fixed for 24 h in the same fixative solution and placed in 30% sucrose in PBS at 4° C. Next, brains were frozen with dry CO2 and serial 20-μm-thick coronal sections were collected using a cryostat. Images were acquired using a Leica DM4000B microscope.
# Tumor areas in coronal sections were measured using Image Pro-Plus software in an every second brain slice and tumor volumes were calculated according to the Cavalieri principle.
# Staining with anti-Iba1 and anti-vWF antibodies was performed to detect microglia/macrophages and blood vessels, respectively. Sections were incubated with 0.5% H2O2 in PBS for 30 min at RT, permeabilized and blocked with 10% donkey serum with the addition of 0.3% Triton X-100 in PBS, and then incubated with the primary antibodies: anti-Iba-1 (rabbit, polyclonal, WAKO, 1:1000) or anti-vWF (rabbit, polyclonal, Abcam, 1:1000) for 24 h at 4° C. and with the secondary goat anti-rabbit biotinylated IgG for 2 hr at RT. The primary and secondary antibodies were diluted in PBS containing 0.1% Triton X-100 and 3% donkey serum. The sections were exposed to extravidin-peroxidase complex (1:200) for 1 h at RT and peroxidase activity was visualized with 0.02% 3.3′-diaminobenzidine (DAB) and 0.01% H2O2 in Tris buffer (pH 7.6). Sections were dehydrated and mounted with Histofluid (Sigma, Germany). […]
# [4] = tested on: EGFP-GL261 glioma cells in murine brain slices; experiment: Tumor invasion in organotypical brain slice cultures; type: cell-based, mouse; conditions: 5d after injection; FIGS. 12A and B
# Method: The organotypical brain slice cultures were obtained from 16-day-old male C57/BL6 mice (animal breeding facility, Schonwalde, Germany). The brain slices cut into 250 μm sections were transferred to a Transwell insert in a 6-well plate (Becton Dickinson, Lincoln Park, N.J., USA) and were incubated in 1 ml of DMEM (Gibco, Gaithersburg, Md., USA) supplemented with 10% FCS (Atlanta Biological, USA), 0.2 mM glutamine and antibiotics. After overnight equilibration, medium was exchanged for the cultivation medium containing 25% FCS, 50 mM sodium bicarbonate, 2% glutamine, 25% Hanks balanced salt solution, 1 μg/ml insulin (all from Gibco, Gaithersburg, Md., USA), 2.46 mg/ml glucose (Braun Melsungen AG, Germany), 0.8 μg/ml vitamin C (Sigma-Aldrich, Germany), 5 mM Tris and antibiotics. Slices were injected with 10,000 GFP-GL261 glioblastoma cells (in 0.5 μl) using a syringe mounted to a micromanipulator. […]
# To investigate whether GM-CSF expression influences microglia dependent invasion or directly affects glioma invasion, an organotypic brain slice culture was used as a model. Control or GM-CSF-depleted EGFP-GL261 glioma cells were injected into murine brain slices and resulting tumor size was quantified 5d after injection by measuring the projected fluorescent area covered by the EGFP-glioma cells within the slice. […]
# [5] = tested on: intracranial GL261 gliomas; experiment: Survival of mice with intracranial gliomas (Kaplan-Meier); type: in vivo, mouse
# Method: Mice were randomly assigned to receive intracranial implantation of shNeg or shRNA glioma cells and observed until becoming moribund. EGFP-GL261 glioma cells, shGM-CSF glioma cells or shNeg glioma cells were inoculated in a right striatum using a syringe with a 26-gauge needle in a stereotactic apparatus according to the coordinates (+1.5 mm AP, −1.5 mL). Mice were resuscitated using i.p. administration of atipamazole and treated with the Tolfedine 4% (4 mg/kg s.c.) analgesic. Kaplan-Meier analysis of mice implanted with shGM-CSF and shNeg glioma cells (n=10 mice per group) was performed.
# Two mice having shGM-CSF-gliomas were alive 63 days post implantation.
# [6] = tested on: osteopontin (spp1) mRNA in C6 glioma cells; experiment: qPCR of osteopontin silencing in stable C6 glioma clones; type: cell-based, rat; conditions: stable C6 glioma cell lines; FIGS. 7A and C
# Method: Forward and reverse oligonucleotides were incubated in 0.1 M NaCl for 3 min at 94° C., followed by slow cooling to 37° C. for 1 h. The annealed DNA was ligated with pSilencer 2.0-U6 (Ambion, Germany) at BamHI and HindIII sites. After transformation into E. coli, plasmids were amplified, isolated and the sequences were verified by sequencing. The pSilencer-spp1, pSilencer-mfg8 pSilencer-GM-CSF and pSilencer 2.0-U6 Negative Control (Ambion) vectors were purified with Qiagen Plasmid Maxi Kit and 1.6 μg of each DNA was transfected into cells using 2 μl Lipofectamine-2000 (Invitrogen, UK). One day after transfection, hygromycin B (200 μg/ml) was added. Resistant clones were picked after 2 weeks and analysed for expression of appropriate mRNA by qRT-PCR.
# RNA was isolated with RNeasy Mini Kit (Qiagen). First-strand cDNA was synthesized from 2 μg of total RNA (DNase-treated) in a 20 μl reverse transcriptase reaction mixture. […] The expression of Osteopontin, and lactadherin in C6 rat glioma cells and primary astrocytes was evaluated using qPCR. The expression of GM-CSF in GL261 glioma cells and primary astrocytes was evaluated using qPCR. […]
# Reaction volume (20 μl) consisted of cDNA equivalent to 50 ng RNA, 1×SYBR Green PCR master mix (Applied Biosystems) and 0.9 μM of each primer. […] Relative quantification of gene expression was determined using the comparative CT method. […]
# [7] = tested on: microglia cells; experiment: qPCR of GCM-induced genes in microglia exposed to GCM of shRNA-expressing C6 glioma cells; type: cell-based, rat; conditions: FIG. 7D
# Method: Total RNA (2 μg) isolated from microglia cultures untreated or treated for 6 h with LPS or G-CM was used as a template to generate cDNA. As endogenous control 18S (Hs99999901_s1) rRNA was applied. Gene expression quantification was performed using the Applied Biosystem TaqMan® The real time amplifications were performed in duplicates in a 20 μl reaction volume containing 2×SYBR PCR MasterMix and a set of primers designed using PRIMER EXPRESS software for the following genes: iNOS, COX-2, II1beta, TNF alpha, MMP-2, MMP-9, MMP-14, Arg1, Id1 and c-Myc. The amount of target mRNA was first normalized to the 18S RNA expression level and then to a control. Data were analysed by the Relative Quantification (^ΔΔCt) method using 7500 System SDS software (Applied Biosystems). The expression of each product was normalized to 18S rRNA and is shown as the ratio of the target gene to 18S gene expression, calculated by 2^−ΔΔCt.
# To investigate the role of identified proteins in GCM-induced activation of microglia cells, stable C6 glioma cell lines expressing shRNAs specific to osteopontin (shSPP1), or a control, negative shRNA (shNeg) were generated. Silencing efficiency was approximately 98.5% (FIGS. 7A and C). Silencing of […] inhibited GCM-induced expression c-Myc and smad7 in microglia cells (FIG. 7B). […]
# [8] = tested on: C6 glioma cells; experiment: Matrigel matrix invasion of C6 glioma cells in presence of microglia; type: cell-based, rat; conditions: laser scanning cytometry; FIG. 7E
# Method: The invasion assay was performed as described (Wesolowska et al. 2008, Kwiatkowska et al. 2011). Briefly, 24-well tissue culture inserts (12 μm pore size Transwell, Corning, N.Y., USA) were coated with the Growth Factor Reduced Matrigel™ Matrix (BD Biosciences, San Diego. Calif., USA). 100 μl of the Matrigel™ Matrix (1 mg/ml) diluted in distilled water, was dried under sterile conditions (37° C.) for 5-6 hours and reconstituted for 30 minutes in 200 μl of culture medium. C6 glioma cells (1.5×10^4/insert) were seeded on Matrigel-coated membrane in the serum-reduced medium (2% FBS) and exposed to microglia or left untreated. After 48 h cells were fixed and cell nuclei stained with DAPI. The membranes from Transwell® inserts were cut out and the total number of cells that migrated through the Matrigel was determined using Laser Scanning Cytometry (LSC, CompuCyte). All experiments were performed in triplicate. The data from three independent experiments were pooled and expressed as the average number of cells±S.D.
# To investigate the role of identified proteins in GCM-induced activation of microglia cells, stable C6 glioma cell lines expressing shRNAs specific to osteopontin (shSPP1), or a control, negative shRNA (shNeg) were generated. Silencing efficiency was approximately 98.5% (FIGS. 7A and C). […]
# [9] = tested on: C6 glioma; experiment: C6 glioma implantation into striatum of Wistar rats; type: in vivo, rat; conditions: 15 days after implantation, FIG. 19C
# Method: RNA was isolated from rat C6 glioma clones stably expressing shRNA against osteopontin cells and cDNA was synthesized using reverse-transcriptase and random hexamer primers. Knock down efficiency of osteopontin was confirmed by Real Time PCR (FIG. 19A). C6 glioma cells expressing control shRNA (shNeg) or glioma cells depleted of osteopontin (shSPP1) (5×10^4 cells/2.5 μl of DMEM) were implanted into the right striatum of 8-10 weeks old Wistar rats. 15 days after glioma implantation, the animals were sacrificed and intracardially perfused with 4% paraformaldehyde. The brains were removed, frozen with dry CO^2 and serial 20- or 12-μm-thick coronal sections were collected using a cryostat. To quantify the tumor size, 20 μm-thick sections were stained with toluidine blue, images were acquired using a Leica DM4000B microscope. Tumor areas were measured using ImageJ software in an every fourth brain slice and tumor volumes were calculated according to the Cavalieri principle (Gabrusiewicz et al, 2011). […] Moreover, gliomas from implanted C6-Neg were of similar sizes as WT C6 cells (n=5, 28.33±14.53 mm^3). […] Results are expressed as the means±s.d. from 2 independent experiments (U-Mann-Whitney test).
Molecule,proliferation of glioma cells (BrdU incorporation) [1],survival of glioma cells (MTT metabolism) [2],"number of microglia/macrophages (anti-Iba-1 staining) ([3]; vs control gliomas (shNeg), FIGS. 11A and B)","formation of tumor vessels (anti-vWF staining) ([3]; vs controls, FIG. 11C)","reduction of tumor size ([3]; vs shNeg glioma cells, day 15, FIG. 11D-E)",average tumor size smaller than controls (fluorescent area) [4],mice alive 63 days post implantation ([5]; 63 days post implantation),"survival of mice ([5]; n=10 mice per group, FIG. 16)",Silencing efficiency [6],GCM-induced expression arg-1 and smad7 in microglia cells [7],microglia-dependent invasion of glioma cells through Matrigel [8],tumor volume (mean value) [9],reduction in tumor volumes ([9]; vs C6-Neg)
B1,did not affect,did not affect,reduced number,reduced formation,65%,58%,Two,significant survival benefit,–,–,–,–,–
B2,–,–,–,–,–,–,–,–,approximately 98.5%,inhibited,strongly reduces,6.03 mm^3,88%
